Experimental data reported in paper PMC4385471 (Molecular cell, 2015).

T1: Maltose Binding Protein (MBP) tagged IpaJΔ50 (Shigella flexneri, UniProt Q54150 51-259)
T1 sequence: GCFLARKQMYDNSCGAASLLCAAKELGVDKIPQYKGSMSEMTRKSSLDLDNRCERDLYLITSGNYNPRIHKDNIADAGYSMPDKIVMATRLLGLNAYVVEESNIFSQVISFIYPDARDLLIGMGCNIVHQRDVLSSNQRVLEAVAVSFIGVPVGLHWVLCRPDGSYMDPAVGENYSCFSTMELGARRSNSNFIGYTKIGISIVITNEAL

B1: Glutathione S-transferase (GST) tagged ARF1ΔN17 (domain or fragment)
chain: not shown

Key:
[1] = target: T1, Maltose Binding Protein (MBP) tagged …; assay: pull-down
[2] = target: T1, Maltose Binding Protein (MBP) tagged …; assay: homologous competition assay
[3] = target: B1; assay: homologous competition assay

| Binder | binding result [1] | further results |
| --- | --- | --- |
| GST-ARF5Δ17 (domain or fragment) not shown | binds |  |
| B1 |  | Kd [2]: 0.28 µM |
| MBP-GGA1(76-215) (domain or fragment, UniProt Q9UJY5 76-215, looked up) SCGKRFHDEVGKFRFLNELIKVVSPKYLGSRTSEKVKNKILELLYSWTVGLPEEVKIAEAYQMLKKQGIVKSDPKLPDDTTFPLPPPRPKNVIFEDEEKSKMLARLLKSSHPEDLRAANKLIKEMVQEDQKRMEKISKRV |  | Kd [3]: 1.81 µM |
| GST-ARF6Δ13 (domain or fragment, UniProt P62330 14-175, looked up) MRILMLGLDAAGKTTILYKLKLGQSVTTIPTVGFNVETVTYKNVKFNVWDVGGQDKIRPLWRHYYTGTQGLIFVVDCADRDRIDEARQELHRIINDREMRDAIILIFANKQDLPDAMKPHEIQEKLGLTRIRDRNWYVQPSCATSGDGLYEGLTWLTSNYKS | binds |  |
